T1: human CCL17 (human, UniProt Q92583 24-94)
T1 construct: Biotinylated in the Fab ELISAs; also called huCCL17; Bt-huCCL17
T1 sequence: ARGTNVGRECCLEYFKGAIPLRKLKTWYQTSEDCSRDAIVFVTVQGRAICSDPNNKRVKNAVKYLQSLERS

T2: cyno CCL22 (cyno, UniProt O00626 25-93 (human entry), limits assumed)
T2 construct: Biotinylated in the Fab ELISA; also called cCCL22; CCCL22
T2 chain: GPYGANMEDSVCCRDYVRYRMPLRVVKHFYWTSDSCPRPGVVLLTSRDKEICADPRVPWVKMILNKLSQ

T3: cyno CCL17 (Macaca fascicularis (cyno), UniProt Q8HYP9 24-94 (rhesus entry))
T3 construct: Biotinylated in the Fab ELISAs; also called cCCL17; cCCL-17
T3 sequence: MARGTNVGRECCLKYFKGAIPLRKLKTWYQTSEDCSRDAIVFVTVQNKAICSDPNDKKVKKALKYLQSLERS


How the values were obtained:
[1] = biological target: T1, human CCL17; test: ranking ELISA of Fab variants with bt-human CCL17
[2] = biological target: T2, cyno CCL22; test: ELISA, Fab captured by anti-kappa, biotinylated chemokine, streptavidin:HRP
Description: (§1) Briefly, Maxisorp 96 well plates were coated with 1 μg/ml Goat anti-human Kappa (Southern Biotech). Semi-purified Fab was added to each plate. […] Proteins bound to the captured Fabs were detected using Streptavidin:HRP.

[3] = biological target: T3, cyno CCL17; test: as above
Description: as §1

Row | binding result [1] | binding result [2] | binding result [3] | Binder
1 | binds |  |  | C17F319 variant W→T at HCDR3 position 100a (Kabat) (Fab, V domains shown) VH: EVQLVQSGAEVKKPGESLKISCKGSGYSFTSYWIGWVRQMPGKGLEWMGIIDPSDSDTRYSPSFQGQVTISADKSISTAYLQWSSLKASDTAMYYCARVGPADVTDSFDYWGQGTLVTVSS VL: DIVMTQSPDSLAVSLGERATINCKSSQSVLLSPWNSNQLAWYQQKPGQPPKLLIYGASTRESGVPDRFSGSGSGTDFTLTISSLQAEDVAVYYCQQYYLIPSTFGQGTKVEIK
2 |  | no binding | binds | F24 (Fab, V domains shown, Semi-purified Fab with a His tag at the C-terminus of the heavy chain; also called C17F24) VH: EVQLVQSGAEVKKPGESLKISCKGSGYSFTSYWIGWVRQMPGKGLEWMGIIDPSDSDTRYSPSFQGQVTISADKSISTAYLQWSSLKASDTAMYYCARVGPADVWDSFDYWGQGTLVTVSS VL: not shown
3 | binds |  |  | C17F319 variant W→R at HCDR3 position 100a (Kabat) (Fab, V domains shown) VH: EVQLVQSGAEVKKPGESLKISCKGSGYSFTSYWIGWVRQMPGKGLEWMGIIDPSDSDTRYSPSFQGQVTISADKSISTAYLQWSSLKASDTAMYYCARVGPADVRDSFDYWGQGTLVTVSS VL: DIVMTQSPDSLAVSLGERATINCKSSQSVLLSPWNSNQLAWYQQKPGQPPKLLIYGASTRESGVPDRFSGSGSGTDFTLTISSLQAEDVAVYYCQQYYLIPSTFGQGTKVEIK
